Measured values from IntAct's records for PubMed 22035699.

B1: 5-hydroxytryptamine receptor 1A (Homo sapiens), P08908 (parent)
chain: MDVLSPGQGNNTTSPPAPFETGGNTTGISDVTVSYQVITSLLLGTLIFCAVLGNACVVAAIALERSLQNVANYLIGSLAVTDLMVSVLVLPMAALYQVLNKWTLGQVTCDLFIALDVLCCTSSILHLCAIALDRYWAITDPIDYVNKRTPRRAAALISLTWLIGFLISIPPMLGWRTPEDRSDPDACTISKDHGYTIYSTFGAFYIPLLLMLVLYGRIFRAARFRIRKTVKKVEKTGADTRHGASPAPQPKKSVNGESGSRNWRLGVESKAGGALCANGAVRQGDDGAALEVIEVHRVGNSKEHLPLPSEAGPTPCAPASFERKNERNAEAKRKMALARERKTVKTLGIIMGTFILCWLPFFIVALVLPFCESSCHMPTLLGAIINWLGYSNSLLNPVIYAYFNKDFQNAFKKIIKCKFCRQ

Variants of: B1
Conditions: with fgfr1_human FGFR1, P11362
Chain of fgfr1_human FGFR1, P11362 (P11362 whole entry, looked up): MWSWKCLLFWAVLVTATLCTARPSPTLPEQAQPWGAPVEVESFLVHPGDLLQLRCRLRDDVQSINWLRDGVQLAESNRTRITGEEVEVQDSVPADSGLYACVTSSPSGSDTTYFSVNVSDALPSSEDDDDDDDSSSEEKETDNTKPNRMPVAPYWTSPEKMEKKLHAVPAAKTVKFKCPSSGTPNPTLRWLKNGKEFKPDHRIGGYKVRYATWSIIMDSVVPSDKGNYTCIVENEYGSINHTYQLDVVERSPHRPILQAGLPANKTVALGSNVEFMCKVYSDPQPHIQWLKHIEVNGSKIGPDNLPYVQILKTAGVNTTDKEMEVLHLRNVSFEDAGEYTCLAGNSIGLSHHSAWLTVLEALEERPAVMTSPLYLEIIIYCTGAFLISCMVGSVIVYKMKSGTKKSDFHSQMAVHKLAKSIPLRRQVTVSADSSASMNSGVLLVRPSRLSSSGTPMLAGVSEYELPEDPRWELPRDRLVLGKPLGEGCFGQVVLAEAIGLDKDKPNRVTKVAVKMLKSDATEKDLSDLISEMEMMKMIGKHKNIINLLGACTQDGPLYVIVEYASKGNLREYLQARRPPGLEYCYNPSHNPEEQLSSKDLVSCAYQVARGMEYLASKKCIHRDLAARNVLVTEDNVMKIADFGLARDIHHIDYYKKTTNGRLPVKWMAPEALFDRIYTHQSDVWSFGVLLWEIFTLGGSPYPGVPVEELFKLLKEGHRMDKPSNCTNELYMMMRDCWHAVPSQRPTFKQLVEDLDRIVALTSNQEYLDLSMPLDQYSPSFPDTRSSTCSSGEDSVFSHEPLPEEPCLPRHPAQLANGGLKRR

Row | Variant | effect of a mutation on the interaction
1 | MDVLSPGQGNNTTSPPAPFETGGNTTGISDVTVSYQVITSLLLGTLIFCAVLGNACVVAAIALERSLQNVANYLIGSLAVTDLMVSVLVLPMAALYQVLNKWTLGQVTCDLFIALDVLCCTSSILHLCAIALDRYWAITDPIDYVNKRTPRRAAALISLTWLIGFLISIPPMLGWRTPEDRSDPDACTISKDHGYTIYSTFGAFYIPLLLMLVLYGRIFRAARFRIRKTVKKVEKTGADTRHGASPAPQPKKSVNGESGSRNWRLGVESKAGGALCANGAVRQGDDGAALEVIEVHRVGNSKEHLPLPSEAGPTPCAPASFERKNERNAEAKRKMALARERKTVKTLGIIMGTFILCWLPFFIVALVLPFCESSCHMPTLLGAIINWLGYSNSLLNPVIYAYFNKAAAAAAAAAAACKFCRQ [D406A;F407A;Q408A;N409A;F411A;K412A;K413A;I414A;I415A;K416A] | decreasing interaction
